Here are results for 1 molecule from article PMC7164261.

Test [1] deals with T1, Flag-TMIGD1/WT (human TMIGD1, AA 30-262) stably expressed in MDCKII-TetOFF cells (human) (UniProt Q6UXZ0).
T1 sequence: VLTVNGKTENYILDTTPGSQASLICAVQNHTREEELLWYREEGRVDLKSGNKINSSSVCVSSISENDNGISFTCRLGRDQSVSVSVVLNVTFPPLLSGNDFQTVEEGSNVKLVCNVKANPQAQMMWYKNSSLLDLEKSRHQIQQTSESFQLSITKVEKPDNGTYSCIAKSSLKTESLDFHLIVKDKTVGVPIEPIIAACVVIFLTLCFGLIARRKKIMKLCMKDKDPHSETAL

The target of test [2] is T2, Flag-ΔD1-TMIGD1 (human TMIGD1 lacking the membrane-distal Ig-like domain, AA 115-262) (human) (UniProt Q6UXZ0).
T2 sequence: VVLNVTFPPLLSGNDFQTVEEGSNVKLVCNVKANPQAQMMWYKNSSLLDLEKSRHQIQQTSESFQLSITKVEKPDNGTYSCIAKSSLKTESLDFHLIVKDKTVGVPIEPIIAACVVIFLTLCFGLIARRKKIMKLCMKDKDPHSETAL

B1: Myc-hSYNJ2BP (human SYNJ2BP full length, AA 2-145) (natural protein)
chain: NGRVDYLVTEEEINLTRGPSGLGFNIVGGTDQQYVSNDSGIYVSRIKENGAAALDGRLQEGDKILSVNGQDLKNLLHQDAVDLFRNAGYAVSLRVQHRLQVQNGPIGHRGEGDPSGIPIFMVLVPVFALTMVAAWAFMRYRQQL
In test [1], B1 had a recruitment of TMIGD1/WT from cytoplasmic compartments to mitochondria in Myc-SYNJ2BP-expressing MDCKII-TetOFF cells (immunofluorescence microscopy, fraction of cells) of 75%. Also, the recruitment of ΔD1-TMIGD1 from cell-cell contacts to mitochondria in Myc-SYNJ2BP-expressing MDCKII-TetOFF cells (immunofluorescence microscopy, fraction of cells) in test [2] was > 90%.
